Here are results for 2 molecules from publication PMC12167710 (2024).

As a reminder, the koff is a measure of how fast the partners let go of each other.

In experiment [1] the target is recombinant human IgG1λ isotype control antibody (clone AbD00264_hIgG1) (human, UniProt P01857 = IgG part). Briefly: BLI.
For experiment [2], the target named is recombinant mouse IgG1κ isotype control antibody (clone P3.6.2.8.1) (mouse, UniProt P01868 = IgG part). Briefly: BLI. Background: Biolayer interferometry detects binding as a change in optical thickness at a sensor tip.

B1: anti-human λ VHH (HuFab lambda 1) (VHH)
VHH: QVQLQDSGGGLVQPGGSLRLSCAASGFTLDYYAIGWFRQAPGKEREGVSCISSSDGSSDGYTYYADSVKGRFTISRDNAKNTVYLQMNNLKPEDTAVYYCAARLFGVATTDPSYFDSWGQGTQVTVSS
For the molecule B1, the koff in experiment [1] worked out at 0.000246 s⁻¹.

B2: anti-mouse κ VHH (TP1170) (VHH)
VHH: QVQLVESGGGWVQPGGSLRLSCAASGFTFSDTAMMWVRQAPGKGREWVAAIDTGGGYTYYADSVKGRFTISRDNAKNTLYLQMNSLKPEDTARYYCAKTYSGNYYSNYTVANYGTTGRGTLVTVSS
Turning to B2, in experiment [2], the koff stood at 1.18e-05 s⁻¹.
